In publication PMC4629891 one finds Kd data, which are given here for 2 sequences.

For the data set, the target named is nucleolin (on the surface of live Huh7 cells) (UniProt P19338). Description: flow cytometry on live Huh7 cells. The settings on record: 5 mM MgCl2, whole-cell apparent Kd, Dulbecco's PBS, 4.5 g/L glucose, 5 mM MgCl2, 0.1 mg/mL yeast tRNA, 1 mg/mL BSA, on ice 30 min, 2x10^5 cells in 200 uL, pH not stated. For orientation: In flow cytometry, cells or beads pass a laser one at a time.
Chain of UniProt P19338 (P19338 whole entry): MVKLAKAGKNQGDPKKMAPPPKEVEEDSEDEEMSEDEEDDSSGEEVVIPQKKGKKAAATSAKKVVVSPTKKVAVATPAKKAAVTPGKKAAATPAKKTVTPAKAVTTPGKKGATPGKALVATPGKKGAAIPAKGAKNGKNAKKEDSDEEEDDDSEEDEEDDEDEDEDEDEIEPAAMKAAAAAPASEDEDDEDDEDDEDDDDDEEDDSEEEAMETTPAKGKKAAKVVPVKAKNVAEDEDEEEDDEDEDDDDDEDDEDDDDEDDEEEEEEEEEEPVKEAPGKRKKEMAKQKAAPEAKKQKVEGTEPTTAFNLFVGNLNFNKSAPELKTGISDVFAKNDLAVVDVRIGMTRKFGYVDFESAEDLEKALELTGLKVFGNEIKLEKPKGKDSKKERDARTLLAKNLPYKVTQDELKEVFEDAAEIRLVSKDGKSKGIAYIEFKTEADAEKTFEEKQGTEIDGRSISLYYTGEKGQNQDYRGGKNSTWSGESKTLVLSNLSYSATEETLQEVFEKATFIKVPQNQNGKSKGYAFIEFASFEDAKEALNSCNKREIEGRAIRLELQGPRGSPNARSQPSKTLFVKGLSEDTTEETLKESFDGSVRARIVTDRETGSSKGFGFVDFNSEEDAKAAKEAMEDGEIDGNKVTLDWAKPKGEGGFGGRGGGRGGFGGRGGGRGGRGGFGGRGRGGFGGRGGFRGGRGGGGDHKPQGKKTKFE

For the sequence “GGTGGTGGTGGTTGTGGTGGTGGTGG [AS1411 (AGRO100)]”, the Kd is 54.8 nM.

In the case of “GGTGGTGGTGGTTGTGGTGGTGGTGG [AS1411-Dox adduct]”, the Kd (doxorubicin adducts via formaldehyde methylene links to guanine N2, 5.4 +/- 0.1 Dox per strand) was 57.3 nM.
